Measurements from paper PMC11705898.

Tests used:
[1] = target: S. aureus PitR with amino terminal histidine tag (pETphoU2_6xHN) (S. aureus Mu50); experiment: SEC; HiPrep 16/60 Sephacryl S-200 HR, 50 mM NaPO4, 150 mM NaCl pH 7.0, 0.5 mL/min; elution volume compared with volumes calculated from protein standards; loaded immediately after Ni purification
[2] = target: S. aureus PhoU with amino terminal histidine tag (pETphoU1_6xHN) (S. aureus Mu50); experiment: as above

Substance	stoichiometry N [1]	stoichiometry N [2]
S. aureus PitR with amino terminal histidine tag (pETphoU2_6xHN) (natural protein)	2	–
S. aureus PhoU with amino terminal histidine tag (pETphoU1_6xHN) (natural protein)	–	2
